Positions count from the first letter of the chain named.
B1: 413H9F8-cp7 (antibody, V domains shown)
VH: EVQLVESGGGLVQPGGSLRLSCAASGFTFSSFGMHWVRQAPGKGLEWVSYISSGSSPIYYVDKLKGRFTISRDNAKNSLYLQMNSLRAEDTAVYYCARAGYAVRNALDYWGQGTLVTVSS
VL: DIVMTQSPPTLSLSPGERVTLSCKSSQSLLNVGNQKNYLAWYQQKPGQAPKLLIYGASTRESGIPDRFSGSGSGTDFTLTISSLQPEDFAVYYCQNDLFYPLTFGGGTKVEIK
notes: humanized IgG; constant regions not specified
B2: 413H9F8-cp5 (antibody, V domains shown)
VH: B1 VH with E1D, S49A
VL: B1 VL with K51R
notes: as for B1
B3: 413H9F8-cp3 (antibody, V domains shown)
VH: B1 VH with E1D, S49A, I70V
VL: B1 VL with D1E, K51R, D66A
notes: as for B1
B4: 413H9F8-cp8 (antibody, V domains shown)
VH: B1 VH with E1D, S49A
VL: B1 VL
notes: as for B1
B5: 413H9F8-H3L4 (antibody, V domains shown)
VH: B1 VH with S49A, I70V
VL: DIVMTQSPDSLAVSLGERATISCKSSQSLLNVGNQKNYLAWYQQKPGQPPKLLIYGASTRESGVPDRFIGSGSGTDFTLTISSLQAEDVAVYFCQNDLFYPLTFGAGTKVEIK
notes: as for B1
B6: 413H9F8-H4L3 (antibody, V domains shown)
VH: B1 VH with S49A, I70V, N84T
VL: B5 VL with S22N, A106G
notes: as for B1
B7: hz282-19 (antibody, V domains shown)
VH: QVQLQESGPGLVKPSETLSLTCTVSGFSLTSYNVYWIRQPPGKGLEWIGVIWNTGATRYNSALKSRVTISKDTSKSQVSLKLSSVTAADTAVYYCARDSAMPAIPFAYWGQGTLVTVSS
VL: DIVMTQSPSSLSASVGDRVTINCKSSQSLFGSVRQKNYLAWYQQKPGKSPKLLIYLASTRESGVPDRFSGSGSGTDFTLTISSLQPEDFAKYYCQQYYDIPWTFGGGTKVEIK
notes: as for B1
B8: hz282-4 (antibody, V domains shown)
VH: B7 VH with S25A
VL: DIVMTQSPDSLAVSLGERATINCKSSQSLFGSVRQKNYLAWYQQKPGQPPKLLIYLASTRESGVPDRFSGSGSGTDFTLTISSLQAEDVAVYYCQQYYDIPWTFGGGTKVEIK
notes: as for B1
B9: hz282-3 (antibody, V domains shown)
VH: B7 VH
VL: B8 VL
notes: as for B1
B10: hz282-8 (antibody, V domains shown)
VH: B7 VH with S25A
VL: B8 VL with P49S, V91K
notes: as for B1
B11: 413H9F8-H1L4 (antibody, V domains shown)
VH: B1 VH
VL: B5 VL
notes: as for B1
B12: 413H9F8-H4L1 (antibody, V domains shown)
VH: B1 VH with S49A, I70V, N84T
VL: B5 VL with S22N, I69S, F93Y, A106G
notes: as for B1
B13: 413H9F8-H2L4 (antibody, V domains shown)
VH: B1 VH with S49A
VL: B5 VL
notes: as for B1
B14: 413H9F8-H3L1 (antibody, V domains shown)
VH: B1 VH with S49A, I70V
VL: B5 VL with S22N, I69S, F93Y, A106G
notes: as for B1
B15: 413H9F8-H2L3 (antibody, V domains shown)
VH: B1 VH with S49A
VL: B5 VL with S22N, A106G
notes: as for B1
B16: 413H9F8-H4L2 (antibody, V domains shown)
VH: B1 VH with S49A, I70V, N84T
VL: B5 VL with S22N, I69S, A106G
notes: as for B1
B17: 413H9F8-H3L3 (antibody, V domains shown)
VH: B1 VH with S49A, I70V
VL: B5 VL with S22N, A106G
notes: as for B1
B18: 413H9F8-H3L2 (antibody, V domains shown)
VH: B1 VH with S49A, I70V
VL: B5 VL with S22N, I69S, A106G
notes: as for B1
B19: 413H9F8-H4L4 (antibody, V domains shown)
VH: B1 VH with S49A, I70V, N84T
VL: B5 VL
notes: as for B1
B20: 413H9F8-cp12 (antibody, V domains shown)
VH: B1 VH with E1D, S49A, I70V
VL: B1 VL with Y93F
notes: as for B1
B21: 413H9F8-cp6 (antibody, V domains shown)
VH: B1 VH with E1D, S49A, I70V
VL: B1 VL with K51R
notes: as for B1
B22: 413H9F8-cp9 (antibody, V domains shown)
VH: B1 VH with E1D, S49A, I70V
VL: B1 VL
notes: as for B1
B23: 413H9F8-cp10 (antibody, V domains shown)
VH: B1 VH
VL: B1 VL with Y93F
notes: as for B1
B24: 413H9F8-cp11 (antibody, V domains shown)
VH: B1 VH with E1D, S49A
VL: B1 VL with Y93F
notes: humanized IgG; constant regions not specified; also called 413H9F8-cp811
B25: 413H9F8-cp4 (antibody, V domains shown)
VH: B1 VH
VL: B1 VL with K51R
notes: as for B1
B26: hz282-7 (antibody, V domains shown)
VH: B7 VH
VL: B8 VL with P49S, V91K
notes: as for B1
B27: hz282-6 (antibody, V domains shown)
VH: B7 VH with S76N
VL: B8 VL with P49S, V91K
notes: as for B1
B28: hz282-16 (antibody, V domains shown)
VH: B7 VH with S25A
VL: B7 VL with V3Q, N22T
notes: as for B1
B29: hz282-14 (antibody, V domains shown)
VH: B7 VH with S76N
VL: B7 VL with V3Q, N22T
notes: as for B1
B30: hz282-18 (antibody, V domains shown)
VH: B7 VH with S76N
VL: B7 VL
notes: as for B1
B31: hz282-2 (antibody, V domains shown)
VH: B7 VH with S76N
VL: B8 VL
notes: as for B1

target: T1, human Claudin 18.2 (CLDN18.2) (human, UniProt P56856-2 1-261); assay: cell-based or functional assay

Binder	% specific cytotoxicity @ 6.67 nM, NUGC4-CLDN18.2, PBMC	ADCC EC50, NUGC4-CLDN18.2, PBMC
B1	29.7%	6.68 nM
B2	29.6%	7.75 nM
B3	30.5%	5.86 nM
B4	27.7%	8.85 nM
B5	28.7%	6.09 nM
B6	27.8%	7.01 nM

target: T1, human Claudin 18.2 (CLDN18.2); assay: FACS Exp. 2, MFI ratio CHO-18.2 over CHO-18.1

Binder	MFI_CHO-18.2/CHO-18.1 (@30 ug/ml)
B7	1010
B8	2540
B9	1670
B10	1610

target: T1, human Claudin 18.2 (CLDN18.2); assay: FACS on CHO-CLDN18.2 cells

Binder	EC50
B11	3.32 nM
B12	2.69 nM
B13	2.8 nM
B14	2.42 nM
B15	2.49 nM
B16	2.45 nM
B5	2.74 nM
B17	2.24 nM
B18	2.14 nM
B6	2.62 nM
B19	2.34 nM

target: T1, human Claudin 18.2 (CLDN18.2); assay: FACS on CHO-CLDN18.2 cells; remark: another data set of the same source

Binder	EC50
B20	3.01 nM
B21	2.32 nM
B22	2.21 nM
B23	3.69 nM
B1	2.47 nM
B24	2.61 nM
B2	2.54 nM
B3	2.09 nM
B4	2.72 nM
B25	2.28 nM

target: T2, CLDN18.2 endogenously expressed on SNU620 gastric cancer cells (UniProt P56856-2 1-261, limits assumed); assay: FACS Exp. 3, SNU620 cells
T2 construct: whole, on cells; also called SU620

Binder	MFI_SNU620 (@30 ug/ml)
B7	1310 MFI
B8	1080 MFI
B26	1250 MFI
B9	1150 MFI
B27	1290 MFI
B10	1190 MFI
B28	1280 MFI
B29	1220 MFI
B30	1210 MFI
B31	1060 MFI

target: T1, human Claudin 18.2 (CLDN18.2); assay: cell-based or functional assay; remark: another data set of the same source

Binder	% ADCC @ 6.67 nM, NCI-N87-CLDN18.2, FcR-TANK	ADCC EC50, NCI-N87-CLDN18.2, FcR-TANK
B1	13.3%	0.28 nM
B2	14.1%	0.27 nM
B3	11.1%	0.22 nM
B4	13.1%	0.27 nM
B5	16%	0.35 nM
B6	15.4%	0.47 nM

target: T1, human Claudin 18.2 (CLDN18.2); assay: FACS Exp. 1, MFI ratio CHO-18.2 over CHO-18.1

Binder	MFI_CHO-18.2/CHO-18.1 (@30 ug/ml)
B7	812
B8	1240
B26	624
B9	1100
B27	521
B10	960
B28	550
B29	798
B30	781
B31	521

Reference: patent US20210380680A1 (ZLLP, published 2021)
